Laboratory results reported in publication PMC4632850 (Protein Science : A Publication of the Protein Society, 2015).
One block for each binder: values may come before it.

Legend:
[1] = biological target: the molecule itself
[2] = biological target: T1, phosphorylated neutral trehalase Nth1 (pNth1) (Saccharomyces cerevisiae, UniProt P32356 1-751, phosphorylated (sites not given)); experiment: SAXS
T1 sequence: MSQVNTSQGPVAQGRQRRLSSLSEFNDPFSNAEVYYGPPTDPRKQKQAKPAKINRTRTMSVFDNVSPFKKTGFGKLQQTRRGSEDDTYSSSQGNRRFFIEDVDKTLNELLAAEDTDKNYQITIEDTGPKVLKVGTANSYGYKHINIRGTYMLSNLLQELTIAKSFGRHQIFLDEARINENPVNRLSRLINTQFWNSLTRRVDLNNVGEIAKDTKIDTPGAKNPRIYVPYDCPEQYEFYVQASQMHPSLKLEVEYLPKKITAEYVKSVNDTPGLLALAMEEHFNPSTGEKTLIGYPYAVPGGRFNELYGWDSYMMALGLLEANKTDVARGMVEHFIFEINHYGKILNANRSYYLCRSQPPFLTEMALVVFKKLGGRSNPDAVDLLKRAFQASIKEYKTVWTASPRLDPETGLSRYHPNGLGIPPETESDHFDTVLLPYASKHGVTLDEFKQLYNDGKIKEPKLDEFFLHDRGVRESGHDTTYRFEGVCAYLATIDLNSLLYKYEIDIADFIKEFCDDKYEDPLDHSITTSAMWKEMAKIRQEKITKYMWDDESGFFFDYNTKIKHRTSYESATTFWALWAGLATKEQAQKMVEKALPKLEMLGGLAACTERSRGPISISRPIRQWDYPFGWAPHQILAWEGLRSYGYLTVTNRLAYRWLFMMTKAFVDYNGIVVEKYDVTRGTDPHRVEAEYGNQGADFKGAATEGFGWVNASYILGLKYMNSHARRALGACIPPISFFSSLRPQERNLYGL

[3] = biological target: the molecule itself; experiment: SEC

B1: DNA-binding domain of human FoxP1 (domain or fragment)
chain: AEVRPPFTYASLIRQAILESPEKQLTLNEIYNWFTRMFAYFRRNAATWKNAVRHNLSLHKCFVRVENVKGAVWTVDEVEFQKRRPQKISGNPSL
- dH (dimer dissociation, van't Hoff) [1]: 23.1 kcal•mol‐1

- binding result [2]: binds
B2: yeast 14-3-3 protein Bmh1 (natural protein)
chain: MSTSREDSVYLAKLAEQAERYEEMVENMKTVASSGQELSVEERNLLSVAYKNVIGARRASWRIVSSIEQKEESKEKSEHQVELICSYRSKIETELTKISDDILSVLDSHLIPSATTGESKVFYYKMKGDYHRYLAEFSSGDAREKATNASLEAYKTASEIATTELPPTHPIRLGLALNFSVFYYEIQNSPDKACHLAKQAFDDAIAELDTLSEESYKDSTLIMQLLRDNLTLWTSDMSESGQAEDQQQQQQHQQQQPPAAAEGEAPK

B3: human HtrA3 lacking the N-terminal domain (enzyme)
chain: GLHQLSSPRYKFNFIADVVEKIAPAVVHIELFLRHPLFGRNVPLSSGSGFIMSEAGLIITNAHVVSSNSAAPGRQQLKVQLQNGDSYEATIKDIDKKSDIATIKIHPKKKLPVLLLGHSADLRPGEFVVAIGSPFALQNTVTTGIVSTAQREGRELGLRDSDMDYIQTDAIINYGNSGGPLVNLDGEVIGINTLKVTAGISFAIPSDRITRFLTEFQDKQIKDWKKRFIGIRMRTITPSLVDELKASNPDFPEVSSGIYVQEVAPNSPSQRGGIQDGDIIVKVNGRPLVDSSELQEAVLTESPLLLEVRRGNDDLLFSIAPEVVM
- stoichiometry N [3]: 3
